Results as given in the supplement of paper PMC5998384.

Columns and labels:
[1] = test system: HeLa Kyoto; test: solubility change mitosis vs G1/S (difference of NP-40 vs SDS log2 ratios) (log2 ratio difference); higher = more soluble in mitosis
[2] = test system: HeLa Kyoto; test: solubility in G1/S (NP-40 vs SDS abundance) (log2 ratio); higher = more soluble; conditions: cell cycle stage: G1/S
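Throughout, for solubility change mitosis vs G1/S (difference of NP-40 vs SDS log2 ratios): synchronized HeLa Kyoto cells (double thymidine block for G1/S, nocodazole release for mitosis), protein amounts in NP-40 versus SDS lysates quantified by mass spectrometry, three biological replicates.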
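Throughout, for solubility in G1/S (NP-40 vs SDS abundance): HeLa Kyoto cells arrested at G1/S by double thymidine block, proteins quantified by TMT10plex mass spectrometry in mild NP-40 versus SDS extracts, three biological replicates.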

Sequence	solubility change mitosis (log2) [1]	solubility in G1/S (log2) [2]
MATPRGRTKKKASFDHSPDSLPLRSSGRQAKKKATETTDEDEDGGSEKKYRKCEKAGCTATCPVCFASASERCAKNGYTSRWYHLSCGEHFCNECFDHYYRSHKDGYDKYTTWKKIWTSNGKTEPSPKAFMADQQLPYWVQCTKPECRKWRQLTKEIQLTPQIAKTYRCGMKPNTAIKPETSDHCSLPEDLRVLEVSNHWWYSMLILPPLLKDSVAAPLLSAYYPDCVGMSPSCTSTNRAAATGNASPGKLEHSKAALSVHVPGMNRYFQPFYQPNECGKALCVRPDVMELDELYEFPEYSRDPTMYLALRNLILALWYTNCKEALTPQKCIPHIIVRGLVRIRCVQEVERILYFMTRKGLINTGVLSVGADQYLLPKDYHNKSVIIIGAGPAGLAAARQLHNFGIKVTVLEAKDRIGGRVWDDKSFKGVTVGRGAQIVNGCINNPVALMCEQLGISMHKFGERCDLIQEGGRITDPTIDKRMDFHFNALLDVVSEWRKDKTQLQDVPLGEKIEEIYKAFIKESGIQFSELEGQVLQFHLSNLEYACGSNLHQVSARSWDHNEFFAQFAGDHTLLTPGYSVIIEKLAEGLDIQLKSPVQCIDYSGDEVQVTTTDGTGYSAQKVLVTVPLALLQKGAIQFNPPLSEKKMKAINSLGAGIIEKIALQFPYRFWDSKVQGADFFGHVPPSASKRGLFAVFYDMDPQKKHSVLMSVIAGEAVASVRTLDDKQVLQQCMATLRELFKEQEVPDPTKYFVTRWSTDPWIQMAYSFVKTGGSGEAYDIIAEDIQGTVFFAGEATNRHFPQTVTGAYLSGVREASKIAAF [KDM1B]	0.0563	-0.371
MATVGAPRHFCRCACFCTDNLYVARYGLHVRFRGEQQLRRDYGPILRSRGCVSAKDFQQLLAELEQEVERRQRLGQESAARKALIASSYHPARPEVYDSLQDAALAPEFLAVTEYSVSPDADLKGLLQRLETVSEEKRIYRVPVFTAPFCQALLEELEHFEQSDMPKGRPNTMNNYGVLLHELGLDEPLMTPLRERFLQPLMALLYPDCGGGRLDSHRAFVVKYAPGQDLELGCHYDNAELTLNVALGKVFTGGALYFGGLFQAPTALTEPLEVEHVVGQGVLHRGGQLHGARPLGTGERWNLVVWLRASAVRNSLCPMCCREPDLVDDEGFGDGFTREEPATVDVCALT [OGFOD2]	0.112	0.182
MAVLGVQLVVTLLTATLMHRLAPHCSFARWLLCNGSLFRYKHPSEEELRALAGKPRPRGRKERWANGLSEEKPLSVPRDAPFQLETCPLTTVDALVLRFFLEYQWFVDFAVYSGGVYLFTEAYYYMLGPAKETNIAVFWCLLTVTFSIKMFLTVTRLYFSAEEGGERSVCLTFAFLFLLLAMLVQVVREETLELGLEPGLASMTQNLEPLLKKQGWDWALPVAKLAIRVGLAVVGSVLGAFLTFPGLRLAQTHRDALTMSEDRPMLQFLLHTSFLSPLFILWLWTKPIARDFLHQPPFGETRFSLLSDSAFDSGRLWLLVVLCLLRLAVTRPHLQAYLCLAKARVEQLRREAGRIEAREIQQRVVRVYCYVTVVSLQYLTPLILTLNCTLLLKTLGGYSWGLGPAPLLSPDPSSASAAPIGSGEDEVQQTAARIAGALGGLLTPLFLRGVLAYLIWWTAACQLLASLFGLYFHQHLAGS [TMEM161A]	-0.0501	-0.184
MAVTEASLLRQCPLLLPQNRSKTVYEGFISAQGRDFHLRIVLPEDLQLKNARLLCSWQLRTILSGYHRIVQQRMQHSPDLMSFMMELKMLLEVALKNRQELYALPPPPQFYSSLIEEIGTLGWDKLVYADTCFSTIKLKAEDASGREHLITLKLKAKYPAESPDYFVDFPVPFCASWTPQSSLISIYSQFLAAIESLKAFWDVMDEIDEKTWVLEPEKPPRSATARRIALGNNVSINIEVDPRHPTMLPECFFLGADHVVKPLGIKLSRNIHLWDPENSVLQNLKDVLEIDFPARAILEKSDFTMDCGICYAYQLDGTIPDQVCDNSQCGQPFHQICLYEWLRGLLTSRQSFNIIFGECPYCSKPITLKMSGRKH [FANCL]	0.0266	0.184
MCCEKWSRVAEMFLFIEEREDCKILCLCSRAFVEDRKLYNLGLKGYYIRDSGNNSGDQATEEEEGGYSCGTAESHDSKGIGLDESELDSEAELMRSMGLPLQFGRITAHKDFEVSMNTRNKVKIKKKKHQKKYLDEIVQESWRKEYEEDDILASDDPSSIEQYENTRTYELQSKKDTETENPPVENTLSPKLEITEKWEKYWNEYGGGLLWQSWQEKHPGQALSSEPWNFPDTKEEWEQHYSQLYWYYLEQFQYWEAQGWTFDASQSCDTDTYTSKTEADDKNDEKCMKVDLVSFPSSPIMVDNDSSGTSDKDHSEILDGISNIKLNSEEVTQSQLDSCTSHDGHQQLSEVSSKRECPASGQSEPRNGGTNEESNSSGNTNTDPPAEDSQKSSGANTSKDRPHASGTDGDESEEDPPEHKPSKLKRSHELDIDENPASDFDDSGSLLGFKYGSGQKYGGIPNFSHRQVRYLEKNVKLKSKYLDMRRQIKMKNKHIFFTKESEKPFFKKSKILSKVEKFLTWVNKPMDEEASQESSSHDNVHDASTSSDSEEQDMSVKKGDDLLETNNPEPEKCQSVSSAGELETENYERDSLLATVPDEQDCVTQEVPDSRQAETEAEVKKKKNKKKNKKVNGLPPEIAAVPELAKYWAQRYRLFSRFDDGIKLDREGWFSVTPEKIAEHIAGRVSQSFKCDVVVDAFCGVGGNTIQFALTGMRVIAIDIDPVKIALARNNAEVYGIADKIEFICGDFLLLASFLKADVVFLSPPWGGPDYATAETFDIRTMMSPDGFEIFRLSKKITNNIVYFLPRNADIDQVASLAGPGGQVEIEQNFLNNKLKTITAYFGDLIRRPASET [TGS1]	0.247	0.102
MDDIADRMRMDAGEVTLVNHNSVFKTHLLPQTGFPEDQLSLSDQQILSSRQGHLDRSFTCSTRSAAYNPSYYSDNPSSDSFLGSGDLRTFGQSANGQWRNSTPSSSSSLQKSRNSRSLYLETRKTSSGLSNSFAGKSNHHCHVSAYEKSFPIKPVPSPSWSGSCRRSLLSPKKTQRRHVSTAEETVQEEEREIYRQLLQMVTGKQFTIAKPTTHFPLHLSRCLSSSKNTLKDSLFKNGNSCASQIIGSDTSSSGSASILTNQEQLSHSVYSLSSYTPDVAFGSKDSGTLHHPHHHHSVPHQPDNLAASNTQSEGSDSVILLKVKDSQTPTPSSTFFQAELWIKELTSVYDSRARERLRQIEEQKALALQLQNQRLQEREHSVHDSVELHLRVPLEKEIPVTVVQETQKKGHKLTDSEDEFPEITEEMEKEIKNVFRNGNQDEVLSEAFRLTITRKDIQTLNHLNWLNDEIINFYMNMLMERSKEKGLPSVHAFNTFFFTKLKTAGYQAVKRWTKKVDVFSVDILLVPIHLGVHWCLAVVDFRKKNITYYDSMGGINNEACRILLQYLKQESIDKKRKEFDTNGWQLFSKKSQEIPQQMNGSDCGMFACKYADCITKDRPINFTQQHMPYFRKRMVWEILHRKLL [SENP1]	0.402	-0.531
MDEDEFELQPQEPNSFFDGIGADATHMDGDQIVVEIQEAVFVSNIVDSDITVHNFVPDDPDSVVIQDVVEDVVIEEDVQCSDILEEADVSENVIIPEQVLDSDVTEEVSLPHCTVPDDVLASDITSTSMSMPEHVLTSESMHVCDIGHVEHMVHDSVVEAEIITDPLTSDIVSEEVLVADCAPEAVIDASGISVDQQDNDKASCEDYLMISLDDAGKIEHDGSTGVTIDAESEMDPCKVDSTCPEVIKVYIFKADPGEDDLGGTVDIVESEPENDHGVELLDQNSSIRVPREKMVYMTVNDSQQEDEDLNVAEIADEVYMEVIVGEEDAAVAAAAAAVHEQQIDEDEMKTFVPIAWAAAYGNNSDGIENRNGTASALLHIDESAGLGRLAKQKPKKKRRPDSRQYQTAIIIGPDGHPLTVYPCMICGKKFKSRGFLKRHMKNHPEHLAKKKYHCTDCDYTTNKKISLHNHLESHKLTSKAEKAIECDECGKHFSHAGALFTHKMVHKEKGANKMHKCKFCEYETAEQGLLNRHLLAVHSKNFPHICVECGKGFRHPSELRKHMRIHTGEKPYQCQYCEYRSADSSNLKTHIKTKHSKEMPFKCDICLLTFSDTKEVQQHTLVHQESKTHQCLHCDHKSSNSSDLKRHVISVHTKDYPHKCEMCEKGFHRPSELKKHVAVHKGKKMHQCRHCDFKIADPFVLSRHILSVHTKDLPFRCKRCRKGFRQQNELKKHMKTHSGRKVYQCEYCEYSTTDASGFKRHVISIHTKDYPHRCEYCKKGFRRPSEKNQHIMRHHKEVGLP [ZFY]	0.257	-0.668
MDEQPRLMHSHAGVGMAGHPGLSQHLQDGAGGTEGEGGRKQDIGDILQQIMTITDQSLDEAQARKHALNCHRMKPALFNVLCEIKEKTVLSIRGAQEEEPTDPQLMRLDNMLLAEGVAGPEKGGGSAAAAAAAAASGGAGSDNSVEHSDYRAKLSQIRQIYHTELEKYEQACNEFTTHVMNLLREQSRTRPISPKEIERMVSIIHRKFSSIQMQLKQSTCEAVMILRSRFLDARRKRRNFNKQATEILNEYFYSHLSNPYPSEEAKEELAKKCGITVSQVSNWFGNKRIRYKKNIGKFQEEANIYAAKTAVTATNVSAHGSQANSPSTPNSAGSSSSFNMSNSGDLFMSVQSLNGDSYQGAQVGANVQSQVDTLRHVISQTGGYSDGLAASQMYSPQGISANGGWQDATTPSSVTSPTEGPGSVHSDTSN [PBX1]	0.0731	0.177
MDGTEGSAGQPGPAERSHRSSVSSVGARAADVLVYLADDTVVPLAVENLPSLSAHELHRAVREVLQLPDIALDVFALWLVSPLLEVQLKPKHQPYKLGRQWPELLLRFTSAPDDDVAMDEPFLQFRRNVFFPKRRELQIHDEEVLRLLYEEAKGNVLAARYPCDVEDCEALGALVCRVQLGPYQPGRPAACDLREKLDSFLPAHLCKRGQSLFAALRGRGARAGPGEQGLLNAYRQVQEVSSDGGCEAALGTHYRAYLLKCHELPFYGCAFFHGEVDKPAQGFLHRGGRKPVSVAISLEGVHVIDSREKHVLLGLRFQELSWDHTSPEEEEPILWLEFDGDSEGTPVNKLLKIYSKQAELMSSLIEYCIELSQAAEPAGPQDSATGSPSDPSSSLAPVQRPKLRRQGSVVSSRIQHLSTIDYVEDGKGIRRVKPKRTTSFFSRQLSLGQGSYTVVQPGDSLEQG [FRMD8]	-0.0705	0.248
MDILKSEILRKRQLVEDRNLLVENKKYFKRSELAKKEEEAYFERCGYKIQPKEEDQKPLTSSNPVLELELAEEKLPMTLSRQEVIRRLRERGEPIRLFGETDYDAFQRLRKIEILTPEVNKGLRNDLKAALDKIDQQYLNEIVGGQEPGEEDTQNDLKVHEENTTIEELEALGESLGKGDDHKDMDIITKFLKFLLGVWAKELNAREDYVKRSVQGKLNSATQKQTESYLRPLFRKLRKRNLPADIKESITDIIKFMLQREYVKANDAYLQMAIGNAPWPIGVTMVGIHARTGREKIFSKHVAHVLNDETQRKYIQGLKRLMTICQKHFPTDPSKCVEYNAL [PRPF18]	0.09	0.178
